According to US20150147384A1, “Sustained Delivery of Molecules Using Peptide Surfactants and Uses Thereof” (Massachusetts Institute of Technology, priority 2012, published 2015):
Where “and” joins values, the source holds several entries; their conditions need not be identical. Equal entries are not always repeated. Entries after “also recorded” stand apart in the source; their conditions may differ. No end group written: not given here.

Key:
P-glycoprotein = P-glycoprotein (Homo sapiens, UniProt P08183); test: Transepithelial transport of Rhodamine-123 (basolateral to apical); conditions: control additions: 100 uM Verapamil or 1% SDS
Sequence of P-glycoprotein (P08183 whole entry): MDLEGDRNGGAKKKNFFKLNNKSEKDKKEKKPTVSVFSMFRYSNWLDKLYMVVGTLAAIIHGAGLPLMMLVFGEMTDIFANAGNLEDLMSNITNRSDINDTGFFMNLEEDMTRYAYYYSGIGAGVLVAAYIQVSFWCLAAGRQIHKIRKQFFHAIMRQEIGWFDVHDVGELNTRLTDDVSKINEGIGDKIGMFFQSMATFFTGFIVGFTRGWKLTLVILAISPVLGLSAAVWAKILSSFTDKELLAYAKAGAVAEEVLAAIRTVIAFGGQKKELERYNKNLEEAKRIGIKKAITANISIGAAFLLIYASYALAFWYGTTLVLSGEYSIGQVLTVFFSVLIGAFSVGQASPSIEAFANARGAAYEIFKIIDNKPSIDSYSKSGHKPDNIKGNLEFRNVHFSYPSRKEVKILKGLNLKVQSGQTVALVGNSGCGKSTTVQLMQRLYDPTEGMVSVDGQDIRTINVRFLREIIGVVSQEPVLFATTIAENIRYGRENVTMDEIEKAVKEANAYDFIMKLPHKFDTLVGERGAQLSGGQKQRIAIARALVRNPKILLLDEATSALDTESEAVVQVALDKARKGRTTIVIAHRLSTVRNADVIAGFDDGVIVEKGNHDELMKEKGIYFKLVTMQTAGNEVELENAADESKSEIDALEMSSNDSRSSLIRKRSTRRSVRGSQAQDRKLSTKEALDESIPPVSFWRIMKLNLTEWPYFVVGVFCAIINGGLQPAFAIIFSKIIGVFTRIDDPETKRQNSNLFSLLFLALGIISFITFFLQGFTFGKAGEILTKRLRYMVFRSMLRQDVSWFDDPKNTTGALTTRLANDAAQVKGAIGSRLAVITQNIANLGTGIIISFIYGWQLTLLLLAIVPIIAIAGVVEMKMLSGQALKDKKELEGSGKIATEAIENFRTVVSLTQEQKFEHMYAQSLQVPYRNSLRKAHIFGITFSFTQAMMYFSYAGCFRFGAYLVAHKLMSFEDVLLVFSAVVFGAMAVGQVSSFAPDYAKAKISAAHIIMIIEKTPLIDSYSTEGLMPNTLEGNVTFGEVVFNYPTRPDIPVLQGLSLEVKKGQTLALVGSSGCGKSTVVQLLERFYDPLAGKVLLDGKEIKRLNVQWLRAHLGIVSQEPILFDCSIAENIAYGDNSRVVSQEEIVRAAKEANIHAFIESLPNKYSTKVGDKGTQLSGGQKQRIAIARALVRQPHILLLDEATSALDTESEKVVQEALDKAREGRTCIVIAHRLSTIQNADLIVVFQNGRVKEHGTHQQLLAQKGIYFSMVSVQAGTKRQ
Experimental: C18 150 mm×46 mm, 3.5 um analytical column, flow rate 0.85 ml/min, detector was set at 500 nm) [15]. The mobile phase, which consisted of acetonitrile, 20 mM sodium acetate buffer pH 4.0, and water containing 1.5 mM. […] Before the end of the experiment, the transepithelial resistance was measured to ensure that the cell monolayer integrity had not been affected by the experimental conditions.

[1] = Microelectrophoretic mobility (ζ-potential) measurements; assay type: physicochemical; conditions: PBS pH 7.4, 20 mg/mL peptide
Experimental: To determine the ζ-potential of the peptide nanovesicle formulations we used a Nano ZetaSizer (Malvern Instrument, UK) equipped with an avalanche photodiode as detector and a 4 mW He—Ne laser operated at 633 nm. Data were acquired by laser Doppler velocimetry and phase analysis light scattering (PALS). The self-assembling peptides were dispersed in PBS at a concentration of 20 mg/mL, which is above their CMC, and equilibrated for 30 min at 25° C. prior to detection. Microelectrophoretic data were obtained using the Henry-Smoluchowski equation.

[2] = Release of carboxyfluorescein (CF) through peptide vesicles; assay type: physicochemical; conditions: for CF retention / release (in words): PBS pH 7.4
Experimental: To determine whether the peptide vesicles can be used for drug delivery we measured the release kinetics of the hydrophilic fluorescent probe 5,6-carboxyfluorescein (CF) through the peptide bilayer assemblies. The peptide powder was added into the CF solution in PBS and the suspension was probe-sonicated for 10 min followed by equilibration for 1 hour. Encapsulated CF is strongly quenched and therefore, only the released CF contributes to the fluorescence intensity signal. Released CF was removed by centrifugation at 11,000 rpm for 25 min using Microcon YM-10 membrane tubes (10 kDa cut-off). Then the vesicles were re-suspended in PBS and incubated for 1 hour at 20° C. The newly released CF during incubation was collected by centrifugation through the Microcon membrane and the fluorescence intensity was measured. This process was repeated every 1 hour and a graph was created to show the release kinetics of CF as a function of time.

[3] = AFM imaging of peptide nanovesicles on mica; assay type: physicochemical; conditions: for number of nanovesicles per necklace: AFM image analysis; for Beads diameter, AFM analysis (necklace-like formations) / Vesicle diameter, AFM analysis: dry state on mica; for Vesicle diameter, AFM analysis: individual nanovesicles; for Clusters diameter, AFM analysis: nanovesicle clusters, dry state
Experimental: For the AFM experiments, 3 uL were removed from the peptide vesicle dispersions (20 mg/mL of peptides in PBS that has been filtered through 0.2 um filters) and deposited on a freshly cleaved mica surface (G250-2 mica sheets 2.5×2.5×0.015 cm; Agar Scientific Ltd, Essex, UK). The bare surface of mica is smooth (rms is about 0.4 nm). Before imaging, each sample was left on mica for 1 min, rinsed with 200 uL of water (Millipore), and dried in a nitrogen gas stream. Images were obtained immediately in air using a Veeco MultiMode NanoScope 3D Controller Scanning Probe Microscope (Digital Instruments, Santa Barbara, Calif.) operated in tapping mode. AFM imaging (512×512 pixels) was performed using soft silicon probes (FESP; nominal length lnom=225 um, width wnom=28 um, tip radius Rnom=8 nm, resonant frequency νnom=75 kHz, spring constant knom=2.8 N m^−1; Veeco Instruments SAS, Dourdan, France). Typical scanning parameters were tapping frequency 73 kHz, integral and proportional gains 0.2 and 0.4, respectively, set point 0.7-1.0 V, and scanning speed 1.0-1.5 Hz. The Nanoscope image processing software was used to obtain height patterns, cross sections, and MIS of the peptide nanovesicles. Images were collected from two different samples at random spot surface sampling (at least five areas).

Caco-2 cell monolayers = test: FITC-dextran 4.4 kDa permeability through Caco-2 monolayer; conditions: for Enhancement ratio (FITC-dextran): R=Papp(peptide)/Papp(control); for enhancement of FITC-dextran transport compared with the control: 1.0 mgmt peptide; for Papp of FITC-dextran 4.4 kDa: apical to basolateral
Experimental: Caco-2 cells were seeded at a density of 2×10^5 cells/cm^2 on 24-well 6.5 mm Transwell polyester membrane inserts (0.4 um pore size, Corning Costar, Cambridge, Mass.). The medium was changed every 2-3 days in both sides of the Transwell membrane. After 20 days the growth medium was replaced with 10 mM HBSS/HEPES buffer pH 7.4 and studies of the cell-monolayer integrity and permeability were performed.
For the permeability assay, we added in the apical side of the Transwell 1 mg/mL FITC-dextran MW 4.4 kDa (Sigma) in 10 mM HBSS/HEPES buffer pH 7.4 with and without 0.2 or 1.0 mg/mL of self-assembling peptides. At each time point, samples were withdrawn from the basorateral side and the amount of FITC-dextran was measured using a fluorescence 96-well plate reader. The excitation and emission wavelengths were 490 nm and 530 nm, respectively. Results were expressed as cumulative transepithelial transport of FITC-dextran as a function of time. All measurements were done in triplicates and expressed as mean±S.D. The apparent permeability coefficient was calculated according to Papp=(dQ/dt)/(dt)/(ACo) in cm/s, where dQ, is the cumulative amount of FITC-dextran in the basolateral side at time t, (dQ/dt) in pmol/s is the permeability rate, Co is the initial concentration of FITC-dextran in the apical side and A is the area of the monolayer. The enhancement ratio R equals to R=(Papp(peptide)/Papp(control)).

[4] = Particle size determination by DLS; assay type: physicochemical; conditions: PBS pH 7.4, 25° C.
Experimental: Prior to measuring particle sizes by DLS, the peptide vesicle formulations in PBS were filtered through 0.4 um filter to remove vesicle aggregates. Normalized intensity-time correlation functions g^(2) (q,t)=I(q,t)I(q,0))/I(q,01))^2 were measured over a broad time scale (from 10^−7 s to 10^4 s) using a full multiple tau digital correlator (ALV-5000FAST) with 280 channels spaced quasi-logarithmically. The scattering wavevector q=4πn sin(θ/2)/λo depends on the scattering angle θ (herein we used 0=90°), the laser wavelength λo, and the refractive index of the medium n, We used the 671 nm line from a diode pumped solid state laser which operated at a power of less than 5 mW. The scattered light was collected by a single-mode optical fiber (coherence factor ˜0.95), transferred to an avalanche photo-detector and then to the digital correlator for analysis. Accumulation times were of the order of few seconds due to the strong scattered intensity from the dispersions. To check the reproducibility of the results, several time correlation functions were recorded for each peptide vesicle system dilute suspensions the normalized electric-field time auto-correlation function g^(1)=(E(q,t)E*(q,0))/(E(q,0))^2 is related to the experimentally recorded intensity autocorrelation function g^(2) (q,t)^2 through the Siegert relation g^(2) (q, t)=B[1+f*|g(1)(q,t)|^2 where B describes the long delay time behavior of g^(2) (q, t) and f* represents an instrumental factor obtained experimentally from measurements of a dilute polystyrene/toluene solution. In our case, the optical fiber collection results in f*˜0.95. The electric-field time correlation function g^(1)(t) (for simplicity we drop the q-dependence) was analyzed as a weighted sum of independent exponential contributions, i.e., g^(1)∫L(τ)exp(−t/τ)dτ=∫L(ln τ)exp(−t/τ)d in τ. The distribution of relaxation times L(lnr)=τL(τ) was obtained by inverse Laplace transformation of g<′>(q,t) using the CONTIN algorithm.
The apparent hydrodynamic radii of the suspended particles were determined using the Stokes-Einstein relation Rh=kBT/6πηD, where kB is the Boltzmann constant, η is the viscosity of the solvent, and D the diffusion coefficient of the particle. The latter is determined by D=1/t q^2. where τ is the relaxation time of g(^1) (q,t).

[5] = Critical micelle concentration (CMC) by Dynamic Light Scattering; assay type: physicochemical
Experimental: The CMC of the amphiphilic peptides was determined by Dynamic Light Scattering (DLS) experiments (PDDLS/Batch setup, Precision Detectors, Franklin, Mass.). Solutions of different peptide concentrations were prepared in PBS and were filtered through 0.4 urn pore size filters prior to measuring. Scattered light was detected at 90° and the number of photons reaching the avalanche photodiode was recorded. The solvent viscosity and the refractive index of the buffer were taken as 0.894 cP and 1.33, respectively, at […]. Data were acquired in triplicates and processed by the Precision Deconvolve program, […]

[6] = Hydrophobic drug uptake and release (Nile red); assay type: physicochemical; conditions: for Nile red emission maxima: Nile red in peptide nanovesicles; for release kinetics of Nile red through peptide nanovesicles (in words): PBS pH 7.4, 20° C.; for retention of Nile red molecules (in words): compared to KA6-CONH2 and DA6-COOH vesicles
Experimental: The hydrophobic fluorescent probe Nile red was used as a probe molecule to study the peptide nanovesicle bilayer. […] The “thin film” method was used for the preparation of the dispersions. Briefly, 0.2 mg of the amphiphilic peptide was dissolved in ethanol and subsequently the organic solvent was removed under vacuum in a rotary evaporator. Then the produced thin film was rehydrated with 1 mL of PBS, pH 7.4 containing 3.14 uM Nile red. Prior to analysis the dispersions were bath sonicated for 30 minutes. All spectra were recorded at room temperature with excitation and emission slit widths set at 5 nm (RF-5301 PC Shimatzu spectrophotometer). The excitation wavelength was at 546 nm and the emission spectra were recorded from 550 to 700 nm.

Experimental for Caco-2 cells: Caco-2 cells (passage 40) were grown at 37° C. in tissue culture flasks with Dubelco's Modified Essential Medium (DMEM) supplemented with 10% v/v FBS (Fetal Bovine Serum) 1% nonessential amino acids and 100 ug/mL penicillin and streptomycin in humidified atmosphere containing 5% v/v CO2. The medium was changed every 2-3 days until cells reach 80% confluence and then were subcultured by trypsinization.
The effect of self-assembling peptides on cell viability and cell proliferation was investigated using the MTT colorimetric assay (Sigma). Caco-2 cells were cultured into the wells of 96-well plates using growth medium until a density of 4×10^3 cells/cm^2 was reached. Then we replaced the growth medium with fresh growth medium containing 0.2 or 1.0 mg/mL self-assembling peptides and the cells were incubated for 3, 24 and 48 h at 37° C. Then 10 uL of MTT reagent was added in each of the wells and the plates were incubated for 3 hat 37° C. Then 100 uL of the detergent solution was added and the plates were stored in the dark for 3 h to dissolve the formazan product. The optical density was measured at 600 nm in a Teknika® ELISA Plate spectrophotometer.

Compound | ζ-potential [1] [mV] | CF retention / release (in words) [2] | number of nanovesicles per necklace [3] | Beads diameter, AFM analysis (necklace-like formations) [3] [nm] | Vesicle diameter, AFM analysis [3] [nm] | Clusters diameter, AFM analysis [3] [nm] | Enhancement ratio (FITC-dextran) (Caco-2 cell monolayers; 0.2 mg/ml peptide) | Enhancement ratio (FITC-dextran) (Caco-2 cell monolayers; 1.0 mg/ml peptide) | enhancement of FITC-dextran transport compared with the control (Caco-2 cell monolayers) [fold] | Vesicle diameter, DLS analysis [4] | CMC in PBS [5] [mg/mL] | Nile red emission maxima ([6]; PBS pH 7.4) [nm] | Papp of FITC-dextran 4.4 kDa (Caco-2 cell monolayers; 0.2 mg/ml peptide) | Papp of FITC-dextran 4.4 kDa (Caco-2 cell monolayers; 1.0 mg/ml peptide) | Caco-2 cell viability (Caco-2 cells) | release kinetics of Nile red through peptide nanovesicles (in words) [6] | retention of Nile red molecules (in words) [6] | further results
CCCCCCCCCCCCOS(=O)(=O)[O-].[Na+] [SDS 1%] |  |  |  |  |  |  |  |  |  |  |  |  |  |  |  |  |  | Enhancement ratio (Rhodamine-123) (P-glycoprotein): 3.0; Papp of Rhodamine-123 (P-glycoprotein; basolateral to apical): 3.28 ± 0.02 10^-5 cm/s
DAAAAAA-OH [DA6-COOH] | −14.0±1.1 | Fast CF release; also recorded: did not retain CF | 11±2 and 11 | 159±26 | 43 ± 11 | 135±24 | 5.0 | 6.6 | 6.6 | 137 (64-725) nm | 0.12 | 647 |  |  |  |  |  | Vesicle diameter, AFM analysis ([3]; listed as DA6-COON): 43±11 nm
KAAAAAA-NH2 [KA6-CONH2] | 12.4±0.9 |  |  |  | 169 ± 29 |  | 4.0 | 5.1 | 5.1 | 164 (65-350) nm | 0.07 | 623 |  |  |  |  |  | CF retention / release (in words) ([2]; listed as KA6-CONH): did not retain CF; average diameter of second DLS peak (probably aggregates of individual vesicles) [4]: 906 nm
acetyl-AAAAAAD-COOH (Ac-AAAAAAD-OH) [Ac-A6D-COOH, amphiphilic surfactant-like self-assembling peptide forming nanovesicles] | −15.4±1.1 | only a small CF retention efficiency | 23±3 and 23 | 200 ± 11 | 28 ± 9 | 101 ± 11 | 6.7 | 7.9 | 7.9 | 97 (30-320) nm | 0.05 | 626 | 1.82 ± 0.24 10^-5 cm/s | 2.13 ± 0.16 10^-5 cm/s | exceeding 100% | release was slower | to a lesser extent | initially loaded CF retained by vesicles ([2]; after 7 h, PBS pH 7.4, 20° C.): 13%; Beads diameter, AFM analysis (necklace-like formations) ([3]; listed as ac-A6D-COOH): 200±11 nm; Vesicle diameter, AFM analysis ([3]; listed as ac-A6D-COOH): 28±9 nm and ~43 nm; Clusters diameter, AFM analysis ([3]; listed as ac-A6D-COOH): 101±11 nm; Vesicle diameter, DLS analysis ([4]; listed as ac-A6D-COOH): 97 nm
acetyl-AAAAAAK-CONH2 (Ac-AAAAAAK-NH2) [Ac-A6K-CONH2, amphiphilic surfactant-like self-assembling peptide forming nanovesicles] | 8.5±0.3 | significantly retained the negatively charged CF |  |  | 126 ± 23 |  | 4.4 | 5.7 | 5.7 | 122 (30-173) nm | 0.16 | 631 | 1.20 ± 0.36 10^-5 cm/s | 1.51 ± 0.37 10^-5 cm/s | exceeding 100% | release was slower | retain higher numbers of Nile red molecules | CF release through peptide nanovesicles ([2]; after 7 h, PBS pH 7.4, 20° C.): approximately 50%; Vesicle diameter, AFM analysis ([3]; listed as ac-A6K-CONH2): ~126 nm; Vesicle diameter, DLS analysis ([4]; listed as ac-A6K-CONH2): 122 nm; Nile red fluorescence yield compared to other peptide nanovesicle systems ([6]; PBS pH 7.4): significantly higher
